Here are results for 29 molecules from US20200283478A1 (Genentech, published 2020).

Experiment [1] concerns the target T1, proprotein convertase subtilisin/kexin type 9 (PCSK9) (human, UniProt Q8NBP7 31-692).
T1 construct: His-tagged full-length PCSK9 in TR-FRET and SPR, biotinylated in phage ELISA; secreted protein is autoprocessed (prodomain plus catalytic/CRD chain starting at S153); also called rec.PCSK9; His-PCSK9
Briefly: phage spot ELISA. On the technique in general: An ELISA detects its analyte on a solid surface through an enzyme-linked reagent.

Experiment [2] addresses T2, PCSK9Δhelix (human, Chemically biotinylated in the phage ELISAs; the site is not given.).
T2 construct: construct M1-Q692 with engineered TEV site, cleaved by TEV; also called His-PCSK9Δhelix; open groove PCSK9Δhelix
Briefly: phage spot ELISA.

Experiment [3] has as its target T3, PCSK9 (proprotein convertase subtilisin/kexin type 9), His-tagged, full-length (human, UniProt Q8NBP7 31-692).
T3 construct: Captured by the His tag (SPR Methods 1 and 2), amine-coupled (Method 3), or His-tagged in TR-FRET; also called His-PCSK9
Briefly: TR-FRET competition; competitor EGF(A)-Fc binding to His-PCSK9. On the technique in general: Time-resolved FRET reads energy transfer from a long-lived donor to a nearby acceptor.

Experiment [4] has as its target T4, PCSK9Δhelix (human, UniProt Q8NBP7 31-152; Q8NBP7 168-692).
T4 construct: Made by TEV cleavage of human PCSK9 M1-Q692 with an engineered TEV site; The new N-terminus of the catalytic domain is S-A168; also called His-PCSK9Δhelix; PCSK9 lacking the P' helix
Briefly: TR-FRET competition; competitor Ab20 binding to His-PCSK9Δhelix.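 Note: readout is anti-His-APC on PCSK9 with anti-Fc-europium on the Fc-tagged ligand, compound incubated 30 min, normalized signal ratio fitted by four-parameter logistic regression.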

* marks the point of attachment. Pentanoyl = CCCCC(=O)* Bounds are passed on as bounds.

T1 sequence (Q8NBP7 other isoform, or with tags, fused parts or gaps limits assumed): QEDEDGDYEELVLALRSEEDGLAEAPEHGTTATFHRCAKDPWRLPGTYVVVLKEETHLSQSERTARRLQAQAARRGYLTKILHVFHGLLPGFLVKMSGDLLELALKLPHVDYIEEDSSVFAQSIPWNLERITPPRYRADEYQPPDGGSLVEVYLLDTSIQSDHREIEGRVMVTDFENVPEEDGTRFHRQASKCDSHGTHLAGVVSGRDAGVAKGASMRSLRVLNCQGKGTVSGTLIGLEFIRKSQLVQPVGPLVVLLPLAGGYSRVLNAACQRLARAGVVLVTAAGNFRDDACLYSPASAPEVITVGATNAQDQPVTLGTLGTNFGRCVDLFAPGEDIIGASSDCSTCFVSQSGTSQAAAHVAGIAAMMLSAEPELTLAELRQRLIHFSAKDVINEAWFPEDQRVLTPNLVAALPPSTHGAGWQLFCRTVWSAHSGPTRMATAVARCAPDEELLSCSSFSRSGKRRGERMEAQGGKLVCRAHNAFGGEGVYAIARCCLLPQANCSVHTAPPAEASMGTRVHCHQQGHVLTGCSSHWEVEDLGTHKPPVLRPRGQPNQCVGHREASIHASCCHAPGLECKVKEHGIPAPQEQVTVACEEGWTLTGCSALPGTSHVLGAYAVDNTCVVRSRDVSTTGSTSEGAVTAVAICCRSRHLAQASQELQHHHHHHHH
T3 sequence (Q8NBP7 31-692 limits assumed): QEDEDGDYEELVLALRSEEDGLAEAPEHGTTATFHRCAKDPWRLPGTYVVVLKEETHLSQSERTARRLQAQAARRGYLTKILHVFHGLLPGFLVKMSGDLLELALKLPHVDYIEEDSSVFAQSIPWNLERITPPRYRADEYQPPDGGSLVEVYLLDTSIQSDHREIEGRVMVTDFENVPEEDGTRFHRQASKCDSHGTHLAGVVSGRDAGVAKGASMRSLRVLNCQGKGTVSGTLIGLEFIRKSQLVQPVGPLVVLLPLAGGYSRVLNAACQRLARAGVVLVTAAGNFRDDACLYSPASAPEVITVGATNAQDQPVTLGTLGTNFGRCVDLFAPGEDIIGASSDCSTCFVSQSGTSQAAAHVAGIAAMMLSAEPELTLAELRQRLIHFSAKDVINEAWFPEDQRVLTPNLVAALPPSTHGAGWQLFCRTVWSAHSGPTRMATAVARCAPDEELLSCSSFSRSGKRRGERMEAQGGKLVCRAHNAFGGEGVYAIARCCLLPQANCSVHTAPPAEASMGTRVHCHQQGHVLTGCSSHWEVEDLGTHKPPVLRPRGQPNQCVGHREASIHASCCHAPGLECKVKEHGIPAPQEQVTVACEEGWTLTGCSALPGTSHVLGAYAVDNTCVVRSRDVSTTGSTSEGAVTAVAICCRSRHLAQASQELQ
T2 sequence (prodomain, as listed by the source mutant limits assumed, chain 1 of 2): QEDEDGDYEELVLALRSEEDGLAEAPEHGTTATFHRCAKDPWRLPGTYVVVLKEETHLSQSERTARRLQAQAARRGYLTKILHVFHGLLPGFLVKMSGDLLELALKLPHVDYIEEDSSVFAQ
T2 sequence (chain, as listed by the source mutant limits assumed, chain 2 of 2): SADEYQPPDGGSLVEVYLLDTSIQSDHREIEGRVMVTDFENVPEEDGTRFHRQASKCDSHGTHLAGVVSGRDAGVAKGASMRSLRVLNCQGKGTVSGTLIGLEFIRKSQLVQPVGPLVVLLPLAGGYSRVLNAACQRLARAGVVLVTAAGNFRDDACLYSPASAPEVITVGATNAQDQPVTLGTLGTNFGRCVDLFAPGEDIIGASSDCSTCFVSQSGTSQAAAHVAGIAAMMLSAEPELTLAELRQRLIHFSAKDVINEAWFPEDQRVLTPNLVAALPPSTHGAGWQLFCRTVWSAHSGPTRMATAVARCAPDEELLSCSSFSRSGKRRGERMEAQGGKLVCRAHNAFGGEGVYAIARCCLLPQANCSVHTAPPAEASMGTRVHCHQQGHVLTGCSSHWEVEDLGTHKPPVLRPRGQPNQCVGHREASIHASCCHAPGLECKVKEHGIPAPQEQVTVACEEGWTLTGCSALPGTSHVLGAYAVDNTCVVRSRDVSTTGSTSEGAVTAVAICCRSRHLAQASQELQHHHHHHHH
T4 sequence (Q8NBP7 31-152, stated change not applied, chain 1 of 2): as the sequence (prodomain, as listed by the source mutant limits assumed, chain 1 of 2) above
T4 sequence (Q8NBP7 other isoform, or with tags, fused parts or gaps mutant, chain 2 of 2): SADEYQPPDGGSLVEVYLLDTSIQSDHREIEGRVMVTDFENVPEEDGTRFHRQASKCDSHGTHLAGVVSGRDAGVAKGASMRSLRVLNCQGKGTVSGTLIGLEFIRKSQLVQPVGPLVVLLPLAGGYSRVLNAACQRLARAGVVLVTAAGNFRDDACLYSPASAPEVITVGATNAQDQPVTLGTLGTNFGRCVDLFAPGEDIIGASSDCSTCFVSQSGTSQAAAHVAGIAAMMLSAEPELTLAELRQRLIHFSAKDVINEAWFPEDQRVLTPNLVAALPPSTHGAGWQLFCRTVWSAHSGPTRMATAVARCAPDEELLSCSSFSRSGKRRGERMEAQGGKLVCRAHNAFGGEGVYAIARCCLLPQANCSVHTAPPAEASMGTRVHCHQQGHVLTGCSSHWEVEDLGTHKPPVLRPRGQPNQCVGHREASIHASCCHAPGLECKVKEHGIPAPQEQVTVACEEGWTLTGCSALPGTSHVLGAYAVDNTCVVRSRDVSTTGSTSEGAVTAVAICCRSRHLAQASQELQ

B1: SEQ ID NO 376 (peptide)
peptide: SGDTRSQLSH
Turning to B1, the values for the ELISA in experiment [1] and in experiment [2] were 2.57 and 1.24, respectively. For the same molecule, the figures for the s/n in experiment [1] and in experiment [2] were 11.9 and 11.3, respectively.

B2: SEQ ID NO 377 (peptide)
peptide: SGAGKLDLSG
In experiment [1], B2 registered an ELISA of 2.87 and a s/n of 11.1. In experiment [2], this molecule yielded an ELISA of 1.75 and a s/n of 4.17.

B3: SEQ ID NO 372 (peptide)
peptide: SGSYRGAWSVFGGSTD
In experiment [1], B3 displayed an ELISA of 1.09 and a s/n of 5.15. In experiment [2], this molecule had an ELISA of 1.04 and a s/n of 7.68.

B4: SEQ ID NO 374 (peptide)
peptide: SGTPEMPAML
On to B4, for which, in experiment [1], the ELISA was 3.01 and the s/n worked out at 5.74. In experiment [2], the ELISA stood at 2.25 and the s/n came to 8.06.

B5: Compound 112 (peptide)
peptide: Pentanoyl-WNLVRIGLTR-NH2
SMILES: CCCCC(=O)N[C@@H](Cc1c[nH]c2ccccc12)C(=O)N[C@@H](CC(N)=O)C(=O)N[C@@H](CC(C)C)C(=O)N[C@H](C(=O)N[C@@H](CCCNC(=N)N)C(=O)N[C@H](C(=O)NCC(=O)N[C@@H](CC(C)C)C(=O)N[C@H](C(=O)N[C@@H](CCCNC(=N)N)C(N)=O)[C@@H](C)O)[C@@H](C)CC)C(C)C
Broadly, the IC50 is the point on the concentration scale where inhibition reaches its midpoint. The low end stands for greater potency, the high end for weaker potency. B5: the figures for the IC50 in experiment [3] and in experiment [4] were greater than 50 µM and 7.5 µM, respectively.

B6: Compound 113 (peptide)
peptide: Pentanoyl-WNLVRIGTTR-NH2
SMILES: CCCCC(=O)N[C@@H](Cc1c[nH]c2ccccc12)C(=O)N[C@@H](CC(N)=O)C(=O)N[C@@H](CC(C)C)C(=O)N[C@H](C(=O)N[C@@H](CCCNC(=N)N)C(=O)N[C@H](C(=O)NCC(=O)N[C@H](C(=O)N[C@H](C(=O)N[C@@H](CCCNC(=N)N)C(N)=O)[C@@H](C)O)[C@@H](C)O)[C@@H](C)CC)C(C)C
Regarding B6, the IC50 in experiment [3] was greater than 50 µM.

B7: Compound 114 (peptide)
peptide: Pentanoyl-WNLVRIGTLR-NH2
SMILES: CCCCC(=O)N[C@@H](Cc1c[nH]c2ccccc12)C(=O)N[C@@H](CC(N)=O)C(=O)N[C@@H](CC(C)C)C(=O)N[C@H](C(=O)N[C@@H](CCCNC(=N)N)C(=O)N[C@H](C(=O)NCC(=O)N[C@H](C(=O)N[C@@H](CC(C)C)C(=O)N[C@@H](CCCNC(=N)N)C(N)=O)[C@@H](C)O)[C@@H](C)CC)C(C)C
For the molecule B7, the IC50 in experiment [3] is greater than 50 µM.

B8: SEQ ID NO 380 (peptide)
peptide: SGRNGSGYINRGIEIW
With B8, in experiment [1], the ELISA was 0.447 and the s/n was determined as 3.85. In experiment [2], the ELISA came out at 0.638 and the s/n was 5.5.

B9: SEQ ID NO 373 (peptide)
peptide: SGCWTYLRGGCSVT
In the case of B9, in experiment [1], the ELISA came to 0.487 and the s/n was determined as 4.39. In experiment [2], this molecule showed an ELISA of 0.569 and a s/n of 5.37.

B10: Compound 47 (peptide)
peptide: Ac-DLMPWNLVRIGL-NH2
Regarding B10, the IC50 in experiment [3] was greater than 50 µM; in experiment [4], 12.6 µM.

B11: SEQ ID NO 375 (peptide)
peptide: SGLAPTVSDS
Consider B11, for which the ELISA turned out to be 0.119 in experiment [1] and 0.55 in experiment [2]. For the same molecule, the s/n was determined as 1.23 in experiment [1] and 4.33 in experiment [2].

B12: Compound 46 (peptide)
peptide: Ac-DLMPWNLVRIGLL-NH2
On to B12, for which the IC50 in experiment [3] was greater than 50 µM; in experiment [4], 14 µM.

B13: SEQ ID NO 382 (peptide)
peptide: SGGSIPWNLERITPPR
For the molecule B13, in experiment [1], the ELISA was 1.41 and the s/n came out at 5.32. For the same molecule, in experiment [2], the ELISA is 1.64 and the s/n is 9.01.

B14: Compound 35 (peptide)
peptide: Ac-DLMPWNLVRIGLLR-NH2
B14: the IC50 in experiment [3] was greater than 50 µM; in experiment [4] it was 4.8 µM.

B15: Compound 56 (peptide)
peptide: Ac-DLMPWNLVRIGALR-NH2
As for B15, the IC50 was greater than 50 µM in experiment [3] and 17.1 µM in experiment [4].

B16: Compound 57 (peptide)
peptide: Ac-DLMPWNLVRIALLR-NH2
In the case of B16, the IC50 in experiment [3] was greater than 50 µM; in experiment [4], greater than 49.5 µM.

B17: Compound 42 (peptide)
peptide: Ac-DLMAWNLVRIGLLR-NH2
B17: the IC50 in experiment [3] was greater than 50 µM; in experiment [4], 28.5 µM.

B18: Compound 59 (peptide)
peptide: Ac-DLMPWNLVAIGLLR-NH2
On to B18, for which the IC50 in experiment [3] was greater than 50 µM; in experiment [4] it was 49.5 µM.

B19: Compound 61 (peptide)
peptide: Ac-DLMPWNAVRIGLLR-NH2
Regarding B19, the figures for the IC50 in experiment [3] and in experiment [4] were greater than 50 µM and 49.5 µM, respectively.

B20: Compound 44 (peptide)
peptide: Ac-DAMPWNLVRIGLLR-NH2
On to B20, for which the IC50 in experiment [3] is greater than 50 µM; in experiment [4], 6.9 µM.

B21: Compound 54 (peptide)
peptide: Ac-DLMPWNLVRIGLLA-NH2
On to B21, for which the figures for the IC50 in experiment [3] and in experiment [4] were greater than 50 µM and 15.4 µM, respectively.

B22: Compound 60 (peptide)
peptide: Ac-DLMPWNLARIGLLR-NH2
Consider B22, for which the 50% inhibitory concentration (IC50) is greater than 50 µM in experiment [3] and 19.2 µM in experiment [4].

B23: Compound 62 (peptide)
peptide: Ac-DLMPWALVRIGLLR-NH2
Turning to B23, the IC50 in experiment [3] is greater than 50 µM; in experiment [4], 49.5 µM.

B24: Compound 43 (peptide)
peptide: Ac-DLAPWNLVRIGLLR-NH2
For B24, the IC50 was greater than 50 µM in experiment [3] and 8.19 µM in experiment [4].

B25: Compound 58 (peptide)
peptide: Ac-DLMPWNLVRAGLLR-NH2
As for B25, the results for the IC50 in experiment [3] and in experiment [4] were greater than 50 µM and 49.5 µM, respectively.

B26: Compound 41 (peptide)
peptide: Ac-DLMPANLVRIGLLR-NH2
Take B26: the results for the IC50 in experiment [3] and in experiment [4] were greater than 50 µM and 49.5 µM, respectively.

B27: SEQ ID NO 381 (peptide)
peptide: SGHASKGMVLSG
On to B27, for which the ELISA in experiment [1] stood at 2.49; in experiment [2], 1.64. Also, the s/n was 15.5 in experiment [1] and 7.52 in experiment [2].

B28: SEQ ID NO 379 (peptide)
peptide: SGNALWNHDRLT
In experiment [1], B28 registered an ELISA of 0.591 and a s/n of 6.42. In experiment [2], this molecule gave an ELISA of 0.665 and a s/n of 7.07.

B29: Compound 48 (peptide)
peptide: Ac-DLMPWNLVRIG-NH2
On to B29, for which the results for the IC50 in experiment [3] and in experiment [4] were greater than 50 µM and 49.5 µM, respectively.
